We go through one substance from article PMC6482012.

This test addresses p62 (SQSTM1) (UniProt Q13501). The experiment in a line: GST pulldown after in vitro AMPK reaction. As to conditions: reference: WT GST-KHK-A without AMPK; sites S80.

Consider “KHK-A (fructokinase A, ketohexokinase A) (from UniProt P50053-2) WT GST-KHK-A incubated with active AMPK”, for which the “binding against the reference” value is “stronger”.
